Source: US20260209386A1 (MYTHIC THERAPEUTICS, published 2026)

T1: Human PTK7 Protein, His Tag, Acro Biosystems (human, UniProt Q13308 31-704)
T1 construct: Bought protein; also called CCK4; not shown: His tag
T1 sequence: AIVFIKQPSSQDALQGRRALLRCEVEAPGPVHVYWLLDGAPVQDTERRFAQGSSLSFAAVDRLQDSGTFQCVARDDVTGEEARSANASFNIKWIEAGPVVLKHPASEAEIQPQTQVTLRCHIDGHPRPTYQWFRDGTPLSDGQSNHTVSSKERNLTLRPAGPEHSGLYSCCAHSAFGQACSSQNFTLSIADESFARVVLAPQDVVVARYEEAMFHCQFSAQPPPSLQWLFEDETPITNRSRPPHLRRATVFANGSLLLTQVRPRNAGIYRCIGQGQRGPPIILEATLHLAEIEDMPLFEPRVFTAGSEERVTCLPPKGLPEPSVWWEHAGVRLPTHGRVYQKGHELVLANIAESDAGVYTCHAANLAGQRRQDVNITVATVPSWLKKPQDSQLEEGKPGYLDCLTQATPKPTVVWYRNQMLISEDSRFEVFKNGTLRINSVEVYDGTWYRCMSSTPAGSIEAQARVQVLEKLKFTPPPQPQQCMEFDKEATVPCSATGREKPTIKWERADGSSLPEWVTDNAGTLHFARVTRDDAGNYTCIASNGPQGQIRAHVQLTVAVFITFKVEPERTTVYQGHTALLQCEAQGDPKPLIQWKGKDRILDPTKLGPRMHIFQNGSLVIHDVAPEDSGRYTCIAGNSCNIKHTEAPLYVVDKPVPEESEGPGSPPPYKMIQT

T2: Human PTK7 Protein, His Tag, Acro Biosystems (human, UniProt Q13308 31-704)
T2 construct: Bought recombinant protein; also called CCK4; not shown: His tag
T2 sequence: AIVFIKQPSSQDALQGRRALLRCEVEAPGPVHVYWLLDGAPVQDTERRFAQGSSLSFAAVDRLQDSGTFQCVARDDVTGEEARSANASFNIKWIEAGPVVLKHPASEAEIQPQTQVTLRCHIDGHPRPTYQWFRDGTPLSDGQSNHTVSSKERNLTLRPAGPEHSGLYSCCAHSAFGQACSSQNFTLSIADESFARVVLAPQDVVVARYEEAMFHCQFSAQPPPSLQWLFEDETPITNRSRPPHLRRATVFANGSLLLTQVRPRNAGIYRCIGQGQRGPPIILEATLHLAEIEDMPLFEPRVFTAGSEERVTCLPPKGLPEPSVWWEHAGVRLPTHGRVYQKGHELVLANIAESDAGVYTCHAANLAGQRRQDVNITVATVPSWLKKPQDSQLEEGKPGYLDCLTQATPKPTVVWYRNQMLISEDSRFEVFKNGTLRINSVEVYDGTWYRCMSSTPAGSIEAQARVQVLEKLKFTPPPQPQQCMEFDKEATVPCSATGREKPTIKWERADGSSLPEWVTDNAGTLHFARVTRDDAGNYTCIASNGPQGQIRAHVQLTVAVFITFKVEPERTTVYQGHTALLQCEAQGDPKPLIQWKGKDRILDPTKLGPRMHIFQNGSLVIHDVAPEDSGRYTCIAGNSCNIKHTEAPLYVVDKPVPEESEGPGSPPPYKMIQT

B1: MYT11182 (antibody, V domains shown)
VH: EVQLVESGGGLVQPGGSLRLSCTASGIHLSSYVMGWVRQAPGKGLEWVGYIYGGGGTYYATWARGRFTISRDTSKNTVYLQMNSLRAEDTAVYFCARAAADFYFNLWGQGTLVTVSS
VL: EIVMTQSPSTLSASVGDRVIITCQASQSISSYLAWYQQKPGKAPKLLIYDISDLASGVPSRFSGSGSGAEFTLTISSLQPDDFATYYCQSYYWISNSGAAFGQGTKLTVL
notes: HC variant of MYT9460, sub at HCV pos 28 (H1 03)
B2: MYT11184 (antibody, V domains shown)
VH: EVQLVESGGGLVQPGGSLRLSCTASGIDLHSYVMGWVRQAPGKGLEWVGYIYGGGGTYYATWARGRFTISRDTSKNTVYLQMNSLRAEDTAVYFCARAAADFYFNLWGQGTLVTVSS
VL: EIVMTQSPSTLSASVGDRVIITCQASQSISSYLAWYQQKPGKAPKLLIYDISDLASGVPSRFSGSGSGAEFTLTISSLQPDDFATYYCQSYYWISNSGAAFGQGTKLTVL
notes: HC variant of MYT9460, sub at HCV pos 30 (H1 05)
B3: MYT11192 (antibody, V domains shown)
VH: EVQLVESGGGLVQPGGSLRLSCTASGIDLSSYVMGWVRQAPGKGLEWVGYIHGGGGTYYATWARGRFTISRDTSKNTVYLQMNSLRAEDTAVYFCARAAADFYFNLWGQGTLVTVSS
VL: EIVMTQSPSTLSASVGDRVIITCQASQSISSYLAWYQQKPGKAPKLLIYDISDLASGVPSRFSGSGSGAEFTLTISSLQPDDFATYYCQSYYWISNSGAAFGQGTKLTVL
notes: HC variant of MYT9460, sub at HCV pos 52 (H2 03)
B4: MYT11180 (antibody, V domains shown)
VH: EVQLVESGGGLVQPGGSLRLSCTASHIDLSSYVMGWVRQAPGKGLEWVGYIYGGGGTYYATWARGRFTISRDTSKNTVYLQMNSLRAEDTAVYFCARAAADFYFNLWGQGTLVTVSS
VL: EIVMTQSPSTLSASVGDRVIITCQASQSISSYLAWYQQKPGKAPKLLIYDISDLASGVPSRFSGSGSGAEFTLTISSLQPDDFATYYCQSYYWISNSGAAFGQGTKLTVL
notes: HC variant of MYT9460, sub at HCV pos 26 (H1 01)
B5: MYT10926 (antibody, V domains shown)
VH: EVQLVESGGGLVQPGGSLRLSCTASGFSLSNYVMNWVRQAPGKGLEWVGIIDSSGSTYYASWAKGRFTISRDTSKNTVYLQMNSLRAEDTAVYFCARGLYLWGQGTLVTVSS
VL: EIVMTQSPSTLSASVGDRVIITCQSSQSVYHNNLLAWYQQKPGKAPKLLIYYTSNLASGVPSRFSGSGSGAEFTLTISSLQPDDFATYYCQGGYNGNIYAFGQGTKLTVL
notes: MYT9345 variant, His at VL pos 31 (L1 08)
B6: MYT10944 (antibody, V domains shown)
VH: EVQLVESGGGLVQPGGSLRLSCTASGFSLSNYVMNWVRQAPGKGLEWVGIIDSSGSTYYASWAKGRFTISRDTSKNTVYLQMNSLRAEDTAVYFCARGLYLWGQGTLVTVSS
VL: EIVMTQSPSTLSASVGDRVIITCQSSQSVYNNNLLAWYQQKPGKAPKLLIYYTSNLASGVPSRFSGSGSGAEFTLTISSLQPDDFATYYCQGGYNHNIYAFGQGTKLTVL
notes: MYT9345 variant, His at VL pos 96 (L3 06)
B7: MYT10943 (antibody, V domains shown)
VH: EVQLVESGGGLVQPGGSLRLSCTASGFSLSNYVMNWVRQAPGKGLEWVGIIDSSGSTYYASWAKGRFTISRDTSKNTVYLQMNSLRAEDTAVYFCARGLYLWGQGTLVTVSS
VL: EIVMTQSPSTLSASVGDRVIITCQSSQSVYNNNLLAWYQQKPGKAPKLLIYYTSNLASGVPSRFSGSGSGAEFTLTISSLQPDDFATYYCQGGYHGNIYAFGQGTKLTVL
notes: MYT9345 variant, substitution at VL pos 95 (L3 05), no Ala mark
B8: MYT10928 (antibody, V domains shown)
VH: EVQLVESGGGLVQPGGSLRLSCTASGFSLSNYVMNWVRQAPGKGLEWVGIIDSSGSTYYASWAKGRFTISRDTSKNTVYLQMNSLRAEDTAVYFCARGLYLWGQGTLVTVSS
VL: EIVMTQSPSTLSASVGDRVIITCQSSQSVYNNHLLAWYQQKPGKAPKLLIYYTSNLASGVPSRFSGSGSGAEFTLTISSLQPDDFATYYCQGGYNGNIYAFGQGTKLTVL
notes: MYT9345 variant, His at VL pos 33 (L1 10)
B9: MYT10950 (antibody, V domains shown)
VH: EVQLVESGGGLVQPGGSLRLSCTASGFSLSNYVMNWVRQAPGKGLEWVGIIDSSGSTYYASWAKGRFTISRDTSKNTVYLQMNSLRAEDTAVYFCARGLYLWGQGTLVTVSS
VL: EIVMTQSPSTLSASVGDRVIITCQSSQSVYNNNLLAWYQQKPGKAPKLLIYYTSNLASGVPSRFSGSGSGAEFTLTISSLQPDDFATYYCQGGYAGNIYAFGQGTKLTVL
notes: MYT9345 variant, Ala at VL pos 95 (L3 05)
B10: MYT10942 (antibody, V domains shown)
VH: EVQLVESGGGLVQPGGSLRLSCTASGFSLSNYVMNWVRQAPGKGLEWVGIIDSSGSTYYASWAKGRFTISRDTSKNTVYLQMNSLRAEDTAVYFCARGLYLWGQGTLVTVSS
VL: EIVMTQSPSTLSASVGDRVIITCQSSQSVYNNNLLAWYQQKPGKAPKLLIYYTSNLASGVPSRFSGSGSGAEFTLTISSLQPDDFATYYCQGGHNGNIYAFGQGTKLTVL
notes: MYT9345 variant, His at VL pos 94 (L3 04)
B11: MYT10946 (antibody, V domains shown)
VH: EVQLVESGGGLVQPGGSLRLSCTASGFSLSNYVMNWVRQAPGKGLEWVGIIDSSGSTYYASWAKGRFTISRDTSKNTVYLQMNSLRAEDTAVYFCARGLYLWGQGTLVTVSS
VL: EIVMTQSPSTLSASVGDRVIITCQSSQSVYNNNLLAWYQQKPGKAPKLLIYYTSNLASGVPSRFSGSGSGAEFTLTISSLQPDDFATYYCQGGYNGNHYAFGQGTKLTVL
notes: MYT9345 variant, His at VL pos 98 (L3 08)
B12: MYT10936 (antibody, V domains shown)
VH: EVQLVESGGGLVQPGGSLRLSCTASGFSLSNYVMNWVRQAPGKGLEWVGIIDSSGSTYYASWAKGRFTISRDTSKNTVYLQMNSLRAEDTAVYFCARGLYLWGQGTLVTVSS
VL: EIVMTQSPSTLSASVGDRVIITCQSSQSVYNNNLLAWYQQKPGKAPKLLIYYTSNHASGVPSRFSGSGSGAEFTLTISSLQPDDFATYYCQGGYNGNIYAFGQGTKLTVL
notes: MYT9345 variant, His at VL pos 56 (L2 05)
B13: MYT10937 (antibody, V domains shown)
VH: EVQLVESGGGLVQPGGSLRLSCTASGFSLSNYVMNWVRQAPGKGLEWVGIIDSSGSTYYASWAKGRFTISRDTSKNTVYLQMNSLRAEDTAVYFCARGLYLWGQGTLVTVSS
VL: EIVMTQSPSTLSASVGDRVIITCQSSQSVYNNNLLAWYQQKPGKAPKLLIYYTSNLHSGVPSRFSGSGSGAEFTLTISSLQPDDFATYYCQGGYNGNIYAFGQGTKLTVL
notes: MYT9345 variant, His at VL pos 57 (L2 06)
B14: MYT10935 (antibody, V domains shown)
VH: EVQLVESGGGLVQPGGSLRLSCTASGFSLSNYVMNWVRQAPGKGLEWVGIIDSSGSTYYASWAKGRFTISRDTSKNTVYLQMNSLRAEDTAVYFCARGLYLWGQGTLVTVSS
VL: EIVMTQSPSTLSASVGDRVIITCQSSQSVYNNNLLAWYQQKPGKAPKLLIYYTSHLASGVPSRFSGSGSGAEFTLTISSLQPDDFATYYCQGGYNGNIYAFGQGTKLTVL
notes: MYT9345 variant, His at VL pos 55 (L2 04)
B15: MYT10939 (antibody, V domains shown)
VH: EVQLVESGGGLVQPGGSLRLSCTASGFSLSNYVMNWVRQAPGKGLEWVGIIDSSGSTYYASWAKGRFTISRDTSKNTVYLQMNSLRAEDTAVYFCARGLYLWGQGTLVTVSS
VL: EIVMTQSPSTLSASVGDRVIITCQSSQSVYNNNLLAWYQQKPGKAPKLLIYYTSNLASGVPSRFSGSGSGAEFTLTISSLQPDDFATYYCHGGYNGNIYAFGQGTKLTVL
notes: MYT9345 variant, His at VL pos 91 (L3 01)
B16: MYT10930 (antibody, V domains shown)
VH: EVQLVESGGGLVQPGGSLRLSCTASGFSLSNYVMNWVRQAPGKGLEWVGIIDSSGSTYYASWAKGRFTISRDTSKNTVYLQMNSLRAEDTAVYFCARGLYLWGQGTLVTVSS
VL: EIVMTQSPSTLSASVGDRVIITCQSSQSVYNNNLHAWYQQKPGKAPKLLIYYTSNLASGVPSRFSGSGSGAEFTLTISSLQPDDFATYYCQGGYNGNIYAFGQGTKLTVL
notes: MYT9345 variant, His at VL pos 35 (L1 12)
B17: MYT10949 (antibody, V domains shown)
VH: EVQLVESGGGLVQPGGSLRLSCTASGFSLSNYVMNWVRQAPGKGLEWVGIIDSSGSTYYASWAKGRFTISRDTSKNTVYLQMNSLRAEDTAVYFCARGLYLWGQGTLVTVSS
VL: EIVMTQSPSTLSASVGDRVIITCQSSQSVYNNNLLAWYQQKPGKAPKLLIYYTSNLASGVPSRFSGSGSGAEFTLTISSLQPDDFATYYCQGGYNGNIYAFGQGTKLEIK
notes: MYT9345 LC variant; substitution position printed as n/a
B18: MYT10927 (antibody, V domains shown)
VH: EVQLVESGGGLVQPGGSLRLSCTASGFSLSNYVMNWVRQAPGKGLEWVGIIDSSGSTYYASWAKGRFTISRDTSKNTVYLQMNSLRAEDTAVYFCARGLYLWGQGTLVTVSS
VL: EIVMTQSPSTLSASVGDRVIITCQSSQSVYNHNLLAWYQQKPGKAPKLLIYYTSNLASGVPSRFSGSGSGAEFTLTISSLQPDDFATYYCQGGYNGNIYAFGQGTKLTVL
notes: MYT9345 variant, His at VL pos 32 (L1 09)

Biological target: T1, Human PTK7 Protein, His Tag, Acro …
Assay: BLI (Octet), antibody on anti-human Fc sensor, 50 nM PTK7, dissociation at pH 7.4 or 5.4; 1 = pH dependent binding relative to parent

Binding result, binds:
B1
B2
B3
B4

Biological target: T2, Human PTK7 Protein, His Tag, Acro …
Assay: BLI (Octet), antibody on anti-human Fc sensor, 50 nM PTK7 at pH 7.4, dissociation at pH 7.4 or 5.4; 1 = pH dependent binding relative to parent

Binding result, binds:
B5
B6
B7
B8
B9
B10
B11
B12
B13
B14
B15
B16
B17
B18
